Measurements published in the supplement of paper PMC12455559.
± gives the standard deviation of the averaged measurements.

Assays:
[1] = PET hydrolysis, aromatic products released after 48 h (umol product/mg enzyme); higher = more PET depolymerization activity
Outline: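 Sealed plates containing 3.5 mg PET (amorphous film or crystalline powder), 450 μL buffer and 5 μg (50 μL) tagless candidate enzyme were held 48 h at 40 or 60 °C with no shaking. Supernatants were then read at 260 and 280 nm against buffer blanks. The aromatic product detected this way, per mg enzyme, defines PET hydrolysis activity.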

[2] = purified protein yield per well (BCA); higher = higher soluble expression
Outline: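 The measured quantity is purified protein yield per well, determined with the Pierce Rapid Gold BCA kit. Anything below 25 ug (0.1 mg/mL) lies under the detection threshold. Enzymes were expressed in E. coli C41(DE3) in 2 mL autoinduction cultures with 100 µg/mL kanamycin at 37 °C for 2 h, then 18 °C for 40 h, and purified on an OT-2 robot using Ni-charged magnetic beads and SUMO protease release.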

[3] = melting temperature (DSF); higher = more thermostable
Outline: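 Candidate enzymes were expressed in E. coli C41(DE3), purified on nickel beads and released by SUMO protease cleavage. For differential scanning fluorimetry, 45 μL enzyme (0 to 0.3 mg/mL) was mixed with 5 μL 5X Sypro Orange in sealed PCR plates on a Bio-Rad CFX96 instrument. Fluorescence was read from 25 °C in steps of 0.3 °C per cycle (ramp 0.3 °C/s) for 250 cycles. The read-out is melting temperature.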

[4] = substrate: cryPow, 40 °C, pH 4.5
[5] = substrate: cryPow, 40 °C, pH 5.5
[6] = substrate: cryPow, 40 °C, pH 6.5
[7] = substrate: cryPow, 40 °C, pH 7.5
[8] = substrate: cryPow, 60 °C, pH 4.5
[9] = substrate: cryPow, 60 °C, pH 5.5
[10] = substrate: cryPow, 60 °C, pH 6.5
[11] = substrate: cryPow, 60 °C, pH 7.5
[12] = substrate: cryPow, 40 °C, pH 8.5
[13] = substrate: aFilm, 40 °C, pH 4.5
[14] = substrate: aFilm, 40 °C, pH 5.5
[15] = substrate: aFilm, 40 °C, pH 6.5
[16] = substrate: aFilm, 40 °C, pH 7.5
[17] = substrate: aFilm, 60 °C, pH 4.5
[18] = substrate: aFilm, 60 °C, pH 5.5
[19] = substrate: aFilm, 60 °C, pH 6.5
[20] = substrate: aFilm, 60 °C, pH 7.5
[21] = substrate: aFilm, 40 °C, pH 8.5
[22] = substrate: aFilm, 60 °C, pH 8.5
[23] = substrate: cryPow, 60 °C, pH 8.5

Row | Sequence | PET hydrolysis [1, 4] | PET hydrolysis [1, 5] | PET hydrolysis [1, 6] | PET hydrolysis [1, 7] | PET hydrolysis [1, 8] | PET hydrolysis [1, 9] | PET hydrolysis [1, 10] | PET hydrolysis [1, 11] | purified protein yield per well [2] | melting temperature [3] | PET hydrolysis [1, 12] | PET hydrolysis [1, 13] | PET hydrolysis [1, 14] | PET hydrolysis [1, 15] | PET hydrolysis [1, 16] | PET hydrolysis [1, 17] | PET hydrolysis [1, 18] | PET hydrolysis [1, 19] | PET hydrolysis [1, 20] | PET hydrolysis [1, 21] | PET hydrolysis [1, 22] | PET hydrolysis [1, 23]
1 | ADNPYQRGPDPTRTSVTAVNGPFANTSVSVPTGYGFNGGRIYYPTDTSQGTFGAIAISPGYTALFSAELAWMGPWLASHGFVVIGIETNSRNDFDTARGTQLLAALDYLTQQSPVRDRVDPTRLAVAGHSMGGGGALSAAIRRSSLKAVVGIAPYSPSSNLANDRVPTMIFSGQADTVVTPSYATGLYNSLPSTTESVYLEVAGADHGFMVGRSNPVMVRTMLPFVKMFVDNDARYSQFLCPLLDNSGVVTYRSTCPLLPSTPTTPTPTPTDPTTPTPTPTVPPGSASQIVGTQSGRCIDVPNASRTNGTRVQLYDCNRQTNQAWTYTSGKQLQVYGNMCLDAAGTGNGAAVQIYSCHSQTNQQWNVNSNGTISNVQSGRCLDVWSTANGAQIQLYDCHSQTNQQFRVTPLA [ESM062] | 11 | 27 | 33 | 24 | < 3 | 4 | 4 | < 3 | 135 µg | 62.5 C | – | – | – | – | – | – | – | – | – | – | – | –
2 | ATGPSSPCTNCTRGPNPTVAALKSNSGPFSTAKFSVSGYLKGFGDSTVYYPTNTTGKMGAIAVIPGYLSYESSIEWWGPRLASHGFVVITMNTNTIYDQPDSRATQLSKALDYVIAQSNSSSSPIAGKVDSTRLGAIGWSMGGGGSLKLSTQRSLNAIIPQAPYYAGSNSFNTIKTPTLILACGVDAVAPVAAHASPFYNKIPNTTPKAFLEIYGGSHFCANSGYPNQDLLGMYGISWMKRFIDFDKRYSQFLCGPNHQADLAISEYRQNCNY [ESM048] | < 3 | < 3 | < 3 | < 3 | – | – | – | – | 48 µg | 49.6 C | – | – | – | – | – | – | – | – | – | – | – | –
3 | QTNPYQKGPAPTVANLEAARGSFAVSSTSISSLSATGFGGGSLHYPTAAGTYGLIAVAPPYLAQSSSIAWLGPRLASHGFVVVMIDVNSTLDFPESRSRQQLAAIDYAIAQNARRTSPIYGKVDTTRRGVTGHSMGGGASILTARNSPANIKGAFPLTPWSSDKNFSNLQVPTGYLACQDDTVAGNADHSLNFYNRMPASTPKGYYELRGETHFCPQSTTNNPVIGKYLVAWMKRFVDNDTRFSPFLSGALPNADLSSGRFSVLRTSGL [DP075] | – | < 3 | < 3 | < 3 | – | – | – | – | 33 µg | 49.3 C | < 3 | – | – | – | – | – | – | – | – | – | – | –
4 | ADNPYQRGPDPTRASVASENGPFANTSVAVPTGYGFNGGRIYYPTDTSQGTFGAIAISPGYTALFSVELAWMGPWLASHGFVVIGIETNSRNDFDTARGTQLLAALDYLTQQSPVRDRVDSSRLAVAGHSMGGGGALSAAMRRSSLKAAVGIAPYSPSSNLATDRVPTMVFSGQADTVVTPSYATGLYNSLPSTTESAYLEVAGADHGFMVGRSNPVLIRTMLPFLKIFIDNDARYSQFLCPLLDTSGVVTYRSTCPLLPTPPTSPTATPTTTPTGPSPTSPPGAASQLVGAQSGRCVDVPNASRANGTRVQLWDCNRQSNQSWTYTSTKQLRVYGDMCLDAAGTGNGAAVQIYGCHGQANQQWNVNSNGTVSNVQSGRCLDVWSTANGAQIQLYDCHGQTNQRFNLTPLA [TEP111] | 13 ± 1.4 | 17 | 15.5 ± 9.2 | 8.5 ± 12 | < 3 | 5 | 4.5 ± 0.71 | < 3 | 245 µg | 63.1 C | – | < 3 | < 3 | < 3 | < 3 | < 3 | < 3 | < 3 | < 3 | – | – | –
5 | ATNPYQRGPAPTAESISAERGSFAVADSAVSADSVSGFGGGTVYYPTDTSAGKFGAVAIAPGFTANEWSLAWLGPRLASHGFVVFIIDTITTGDQPAQRGDELRAALSYLTTSSPVRDRVDPARLGVMGHSMGGGGALQAAEDDPSIRAVIPMTPYDLDSPSPKVTAPTLIIGAQDDTIAPVAYHARPFYESLTSARAKEYIELRNQSHFAPNYPNATIASASIAWLKRYIDDDQRYQPFACPAQVGSWLISDFRSAC [DP034] | – | < 3 | < 3 | < 3 | – | < 3 | < 3 | < 3 | 180 µg | 47.5 C | < 3 | – | < 3 | < 3 | < 3 | – | < 3 | < 3 | < 3 | < 3 | < 3 | < 3
6 | AASPYERGPDPTEQTITAERGPFQVATATVPANSASGFNRGTIYYPTDTSQGTFGAVAIIPGFIEPESTMSWYGPRLASQGFVVFTLEPFSVLNFPDDRANQLLAALDYLTGSSSVRSRVDASRLAVMGHSMGGGGTLRAAEMRPSLQAAIPLAPWHLHGDWRNVRVPTMIQAADNDFIAGVGNHAQPFYQNLTNAPEKAYLLFENYGHMSWISANTPIAKYSIAWLKRYVDDDTRYSKFLCPAPGAPSSTFQEYRHTCPD [DP044] | – | < 3 | < 3 | < 3 | – | – | – | – | 28 µg | 69.4 C | < 3 | – | – | – | – | – | – | – | – | – | – | –
7 | ADNPYQRGPDPTPALVASVNGPFATASVSVPAGYGFGGGMIYYPTDTSQGTFGGIAISPGYTALFSAELAWMGPWLASHGFVVIGIETNNRNDFDEARGTQLLAALDYLTQQSPVRNRVDPNRLAVAGHSMGGGGALNAAIRRPSLKAAVGLAPFSPSSNLANDRVPTMVFSGQQDTVVTPSYVTGLYNSLPSTTQSAYLEIAGGDHGFPVGRPNQVMIRTMLPFVKIFVDYDTRYSPFLCPLSDTSGVVTYRSTCPLTPPGLPTTPPTTPPTTVPTSPPTGGPTTPPTTPSQPGGACTATYRTVNSWPGGFQGEVTVTAGNSAINGWTVRWTLDSGQAITQVWNGEVSTSGSTVSVRNAPYNGSLPPSGSTTFGFLSSGSPSSPSLTCTSP [DP059] | – | 5.5 ± 0.71 | 21.5 ± 3.5 | 35 ± 2.8 | – | 32.5 ± 2.1 | 47 ± 8.5 | 19.5 ± 3.5 | 255 µg | 74.2 C | 32.5 ± 3.5 | – | < 3 | < 3 | < 3 | – | 2 ± 2.8 | < 3 | < 3 | < 3 | < 3 | 34 ± 1.4
8 | AGNPYERGPSPTAASIAADRGPFATAQVTVPRGNGFGGGVIYYPTDTSQGTFGAIAIAPGFNTAWSYYAWQGPRLASFGFVVIGIETNTLNDYADARATQLLAALDYLVNSSPVRDRVDRDRLAVGGHSMGGGGALLAATQRPSLLTAVGQAPYVPNGNLSGIKSPTIIFAGQADGTVTPQYAQNAYNTIPADVERAYVEIANEGHGFPAGGGGGNSGAFARTMMVWLKLFIDKDTRYAPFLCPTLSNANGISKYMASCPLDPPGGGPTASPTASPTATPSSTPTGPPPATSALKGVASGRCLDVNGASQANGAQAQIWDCNGQNNQQWTTTSAGELRVYGNKCLDVNGGSTADGTSVIIWDCNGQNNQKWRLNSDGTITAVGANKCLDVSGAGTANGTKTQIWTCHGGTNQKWTRV [DP092] | – | 7 ± 1.4 | 13.5 ± 3.5 | 15 | – | < 3 | < 3 | < 3 | 197 µg | 68.5 C | 18.5 ± 2.1 | – | < 3 | < 3 | < 3 | – | < 3 | < 3 | < 3 | < 3 | < 3 | < 3
9 | AVHGPDPTDALLEASRGPYATAQIDVSALAVSGFGGGTIYYPTTTSEGTFGGVAIAPGYTADKSSLAWLAARLASHGFVVFNIDTLTRLDQPDSRGRQLLAALDYLTQRSSVRSRVDASRLGVMGHSMGGGGTLEAAVSRPSLRAAVPLTPWNLDKTWPEVRTPTLIIGADLDTIAPVLTHAEPFYASLPSTLDKAYLELNNATHFAPNITDTTIGKYAVAWMKRFIDDDTRYNRFLCPGPSWSLSVEEYRSTCPF [TEP061] | < 3 | < 3 | < 3 | 2 ± 2.8 | < 3 | < 3 | < 3 | < 3 | 299 µg | 51.4 C | – | < 3 | < 3 | < 3 | < 3 | < 3 | < 3 | < 3 | < 3 | – | – | –
10 | AGNPYQRGPDPTLASVAASRGTFATAQVSVPAGNGFNGGTIYYPTDSSQGTWGAVAIVPGYTALFANEEAWMGPWLASFGFVVIGIETNSRTDFDTARGTQLLAALDYLTQKSPVRDRVDSARLGVIGHSMGGGGVVYATEHRPSLKAAVALAPFSPSQDMSTDHVPTMVMGGQNDTVVTPSYLDGLYATMPASTQSDFVQLAGADHVAYTHPNTTEMRLLIPWLKIFLDDDTRYTQFLCPLMDSTGVSAYHSKCPYVPPGGSTSTPTPTPTITPTPPPSGACSATYRTVNSWSGGYQGEVTVTAGDAAINGWTVRWNLGGGQTVTQVWNGTLSTSGSTATVTNASYNGSLQASASTTFGFLANGTPSTPAITCTSP [TEP114] | 7 | 12.5 ± 0.71 | 24.5 ± 3.5 | < 3 | 6 ± 1.4 | 9 ± 1.4 | 1.5 ± 2.1 | < 3 | 407 µg | 41.8 C | – | < 3 | < 3 | < 3 | < 3 | < 3 | < 3 | < 3 | < 3 | – | – | –
11 | ADNPYQRGPDPTPASIAADHGPFATAQTTIPKGNGLGGGIVYYPTDTSQGTFGAIAIAPGYGTEWRWYGWLGPRLASFGFVVVGIETNSLSDYADARADQLLAALDWLVTSSPVRDRVDRTRLAVGGHSMGGGGALVAATRRPSLRSAVGMAPYVPDGILRGTSVPTILFGGQADTTVTPAYLASAYATIPATVPRAYPEIAGEGHGFAAGGGGGNSGAFARVMMVWLKVFVDADTRYPPFLCPTLSNTSGISKYQASCPLGPGGTIPPPDTSRLANANAGRCLDASGAGTANGTKVILWTCNHGANQQWNRT [ESM139] | < 3 | < 3 | 1.5 ± 2.1 | 3.5 ± 0.71 | < 3 | < 3 | < 3 | < 3 | 305 µg | 65.5 C | – | < 3 | < 3 | < 3 | < 3 | < 3 | < 3 | < 3 | < 3 | – | – | –
